# Reference: the supplement of paper PMC10567573
# ± gives the standard deviation.
# Assay: protein stability index of a GFP-peptide fusion (GPS, HEK-293T) (PSI 1-6); higher = more stable
# Details: c terminus: a fixed tail appended
# 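Further: 24-mer peptide tiles fused after GFP, lentivirally expressed, FACS-sorted into six equal bins by GFP/DsRed ratio, decoded by Illumina sequencing, PSI is the read-weighted mean bin number.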
Sequence,protein stability index (treatment: DMSO),"protein stability index (treatment: MLN4924 1 uM, 8 h)"
SAEYVGHLRATEKMKTRELHRESS [HDAC6],4.62 ± 0.36,4.47 ± 0.4
MAAAVAAAPGALGSLHAGGARLVA [AUH],2.8 ± 0.58,3.12 ± 0.39
YESDSSNHCMLSPSSSGHLADSDT [C18orf25],5.18 ± 0.33,5.28 ± 0.21
PAPASSTPQEPWPGPTAPSPTSRP [PDLIM7],5.07 ± 0.093,5.13 ± 0.22
LLETDAGPAASEGAEQPPDLHCVL [GADD45A],4.82 ± 0.29,4.78 ± 0.18
EVEEADGNKQWWFGGGCDLTPTYL [CPOX],3.43 ± 0.49,3.36 ± 0.39
LEQFLSILPKELQGWVREHCPESG [ZSCAN9],2.5 ± 0.15,2.71 ± 0.29
VLLGEPLVVMAPSPSESSETVLAL [DENND6A],2.82 ± 0.36,2.52 ± 0.34
SWRVGVVRVRQDSGAEGHSHSCYH [TRIM35],3.02 ± 0.41,3.2 ± 0.32
SMQYNGSYFDRGAKGGSRLCTPEG [DFFB],2.98 ± 0.14,3.35 ± 0.35
TIEGTSDDLTVVDAASLRRQIIKL [MFF],4 ± 0.34,4.08 ± 0.16
GLSPSIDTLDHIRALDRLQEVPHE [PPP2CA],4.91 ± 0.22,4.87 ± 0.14
PASGASSIKPEASQMPPPAGGTSD [SCNN1D],5.43 ± 0.14,5.45 ± 0.19
TLEITLKDIVQTVRSRLEEAGIKV [TENT5C],2.02 ± 0.35,2.18 ± 0.35
VSKTLPSTWSDPSVNISLDNLLPG [CLINT1],3.35 ± 0.17,3.56 ± 0.16
ICTQKCALNWTDIPVAMEHQPPYI [VPS39],2.25 ± 0.48,2.12 ± 0.11
RTDVGITHQHWQQFEPQLTLWDVF [RSAD1],2.25 ± 0.4,2.38 ± 0.39
RQSRRQSVSRFFADSGADPKGEPG [FBF1],5.04 ± 0.12,5.11 ± 0.17
HVPEGFDPTGPAGLGRPTPGLSQG [EHMT1],4.4 ± 0.27,4.51 ± 0.11
EERASLAGNRNSMVIHIPEEPRPS [KCNK9],4.82 ± 0.13,4.94 ± 0.38
ILREFEELHRRLDEEQQVLLSRLE [TRIM39],3.43 ± 0.3,3.63 ± 0.12
AQLFMDHLFAGAEVILLVVMAYDR [OR4A15],2.2 ± 0.74,2.75 ± 1
AVGYSSDSETLDLEEAEGAVGYQP [NFE2L1],5.24 ± 0.1,5.33 ± 0.21

Sequence,protein stability index (treatment: DMSO),"protein stability index (treatment: MLN4924 1 uM, 8 h)"
FVAGGISGTVAAVLTLPFDVVKTQ [SLC25A39],2.95 ± 0.63,2.76 ± 0.84
AGVGLSGGAAGAGWCIFVYNLSPE [ELAVL3],3.13 ± 0.71,2.71 ± 0.26
CLIRSLLRREPSERLTAPEILLHP [TRIB1],2.48 ± 0.21,2.2 ± 0.21
KIQNHGHRVLQRLEQRRQQASERE [FCHSD1],4.28 ± 0.28,4.51 ± 0.075
MSSPSSPFREQSFLCAAGDAGEES [TIAF1],5.34 ± 0.18,5.32 ± 0.17
GSGAPSPLSKSSPATTVTSPNSTP [SNAP91],5.44 ± 0.16,5.4 ± 0.16
QVLKKIAQKALDLPSSGEGLAFFT [HMOX1],2.57 ± 0.7,2.02 ± 0.41
FNMWGFGRVSKQASQPVKKQQENA [WDR41],3.12 ± 0.25,3.54 ± 0.18
YVALFPCNECAKLIIQAGIKEVIF [DCTD],2.73 ± 1.2,2.96 ± 0.54
TLASAGGPDNLVLLNPEKYKAKSR [ADD1],4.22 ± 0.22,4.31 ± 0.2
KQVCKIAALHGLEETKKLANKYLV [KLHL14],2.03 ± 0.31,2.35 ± 0.32
EQNQEGDAAYRKALDLAREFLPQG [AUH],4.42 ± 0.19,4.44 ± 0.37
CSYTDLLPQDEGGGGYSSVRYSDC [KCNA4],2.67 ± 0.27,2.68 ± 0.24
AVIKSNHSYCRMFLQRGADTNLGR [ASB7],2.26 ± 0.16,2.41 ± 0.14
VYSLEPRLCGGKGGFGSMLRALGA [SDE2],2.24 ± 0.45,2.1 ± 0.081
CLAGCEGAHEQVDFKDFYPAIADL [P3H4],3.59 ± 0.48,3.68 ± 0.26
IFRSKLKNRPSSEGSINKILSGLD [CDC14A],2.27 ± 0.32,2.69 ± 0.42
CVNMDRSFACQCPEGHVLRSDGKT [MATN2],3.92 ± 0.21,4.22 ± 0.73
TDDSYSCHCLKGFTLNPDKKTCRR [MATN2],3.27 ± 0.78,4.03 ± 0.7
TMLTVIEQPVPPTPATPEDPAPLW [EMID1],3.76 ± 0.28,3.77 ± 0.23
YNSFHKLRDRAERIASRAIDNAAD [SNX8],3.98 ± 0.43,4.14 ± 0.38
ESKVKDILSKVQKNHVGKPLLKMD [FAM98B],3.49 ± 0.17,3.79 ± 0.19
STPRPSITPTKKIELDRTIMPDGT [C2CD2L],4.76 ± 0.24,4.87 ± 0.17

Sequence,protein stability index (treatment: DMSO),"protein stability index (treatment: MLN4924 1 uM, 8 h)"
SMRLLESKKGLSFFAFEHSEEYQQ [TCF25],3.35 ± 0.12,3.3 ± 0.16
IGQVHEEFKQNIENVSVEMLLRKF [FCHO1],3.05 ± 0.3,3.32 ± 0.23
LAHLAPLFDNPKLDKELRAMLREK [INTS3],2.6 ± 0.41,2.65 ± 0.5
LHVACELARPECLFLLLGHGASPG [ANKRD9],2.53 ± 0.61,2.44 ± 0.45
FWSVMFFLMLINLGLGSMIGTMAG [SLC6A17],3.2 ± 0.55,3.49 ± 0.57
KHYRLQFYMFAWTHVTLLITVTQS [CDS1],2.93 ± 0.18,3.16 ± 0.16
ELTATFTKFDRDGNRILDEKEQEK [PKD2L1],5.38 ± 0.11,5.17 ± 0.18
VMSGKMSVSKAQSIYGIPHSTLEY [LCOR],2.38 ± 0.19,2.23 ± 0.076
PLLLFTYLNSFLHQRIPQSVRILG [SLC29A1],2.96 ± 0.54,2.97 ± 0.54
QYREAAGPHEAFNKLWELCCQWLK [ZNF449],2.93 ± 0.53,3.05 ± 1
TSPLTAEKLCIYTDNSIKPQELLE [CCND2],4.05 ± 0.23,4.08 ± 0.27
LHSAIYAARPDVKCVVHIHTPAGA [ADD1],2.24 ± 0.22,2.11 ± 0.28
HHLDEDEERERIERVRRIHIKRPD [KCTD10],5.09 ± 0.34,5.19 ± 0.076
GTDSAGPKTVPSHVFSELWDLSEA [ELOA2],3.95 ± 0.25,4.39 ± 0.38
VRTLEGVFQHHQYLSPLERKRLAR [VENTX],3.23 ± 0.23,3.54 ± 0.47
LMRTCERLVKEGRFVPSNPIGILT [PPTC7],2.65 ± 0.17,2.53 ± 0.23
ELSRSRKLYGQRERVWALAQEKAA [FCHSD1],3.04 ± 0.33,3.47 ± 0.22
HPVLHKEEKQHLERLNKEYQEIFQ [TRIM43],3.9 ± 0.47,4.06 ± 0.4
KAPSTDDATWAAVAACTKEIDTQG [C10orf62],5.14 ± 0.2,5.11 ± 0.09
NHLDPFGHIILNSMHKYQPRLHIV [TBX5],2.31 ± 0.23,2.08 ± 0.52
LNVNLNSVVLRRARGGAVSARYVL [DUSP5],2.19 ± 0.54,2.26 ± 0.51
SWACAFTNALTHTVAMSTLNFCGP [OR3A1],3.47 ± 0.13,3.15 ± 0.049
KSNNRLKSLSIQYLELDRLVWRNS [FBXO39],2.38 ± 0.18,2.4 ± 0.3

Sequence,protein stability index (treatment: DMSO),"protein stability index (treatment: MLN4924 1 uM, 8 h)"
VFAPVYFPEELHRKAALEQDLAFW [HMOX1],2.14 ± 0.43,2.4 ± 0.38
DEPCAISGKWTFQRDSKRWSRLEE [DLC1],3.99 ± 0.14,3.91 ± 0.33
LLRPKYRAPQGCSGVDECARQEGL [PBXIP1],3.56 ± 0.23,3.65 ± 0.37
IAVKTLGIGKNVICDRTATPLDAF [GFOD1],2.43 ± 0.14,2.53 ± 0.17
ARRLTRFTGVITQGRNSLWLSDWV [CPXM2],2.43 ± 0.24,2.38 ± 0.26
GHNSPLYKRQEESGAAASLNVDAA [CHIT1],5.19 ± 0.19,5.11 ± 0.22
QDAPLSDCTETIEGLELTEQTFSP [ADD1],5.46 ± 0.21,5.3 ± 0.23
LDNNASASGNATQTESGSEEVSST [C10orf62],5.7 ± 0.2,5.64 ± 0.15
RKEAYGKPVDIWACGVILYILLVG [CAMK2B],2.95 ± 0.76,2.73 ± 0.7
GELVLATAISSFTRHVFTCGRRGI [TLE6],2.37 ± 0.31,2.52 ± 0.52
NTNTLKVPECRLAEDLGNLWENTR [SPOPL],3.22 ± 0.26,3.41 ± 0.34
RAQKQCRKSSFAFYQAVRDLLPVW [ANKRD9],2.33 ± 0.49,1.98 ± 0.31
ITMYAVGVGKAIEEELQEIASEPT [MATN2],3.18 ± 0.13,3.16 ± 0.19
GCKVPQEALLKLLAGLTRPDVRPP [SEPHS2],2.28 ± 0.33,2.03 ± 0.29
VFEKAGVSISVVHGNLSEEAAKQM [CPOX],3.72 ± 0.15,3.65 ± 0.4
KTGILILILSIIFIEGYCTPEEVI [MAGEA10],3.53 ± 0.9,2.63 ± 0.36
QTLQAMDSEDFPQAAKQIKDGVTM [FSD1],4.97 ± 0.26,5.04 ± 0.083
QLFEDPTVDKEVEIRKKVLKIYNK [MNAT1],3.41 ± 0.18,3.5 ± 0.29
KTRQKSEKQMEEKRRANQKSSAQG [PPEF2],5.25 ± 0.27,5.3 ± 0.2
KTILGNAHDNSEELERARELKEKE [ANKRD44],5.62 ± 0.16,5.51 ± 0.21
